Laboratory results as given in PMC10864275, “Binding kinetics drive G protein subtype selectivity at the β1-adrenergic receptor” (Nature Communications, 2024).
Values joined by “and” are separate entries in the source; they are usually repeats but may differ in a detail not shown here. Equal entries are not always repeated. One block for each binder: values may come before it.

Legend:
[1] = molecular target: avi-β1AR-E (turkey β1-adrenergic receptor, β1AR-E construct with N-terminal biotinylated avi-tag) (turkey), P07700; assay: BLI; biotinylated avi-β1AR in LMNG on streptavidin biosensors, mini-G in solution; 500 μM isoprenaline; 20 mM TrisHCl pH 8.0, 150 mM NaCl, 15 mM MgCl2, 0.02% LMNG, 0.1% BSA; 25 °C; single point measurements, monophasic 1:1 local fit, n = 3
Chain of avi-β1AR-E (turkey β1-adrenergic receptor, β1AR-E construct with N-terminal biotinylated avi-tag) (turkey), P07700 (P07700 other isoform, or with tags, fused parts or gaps): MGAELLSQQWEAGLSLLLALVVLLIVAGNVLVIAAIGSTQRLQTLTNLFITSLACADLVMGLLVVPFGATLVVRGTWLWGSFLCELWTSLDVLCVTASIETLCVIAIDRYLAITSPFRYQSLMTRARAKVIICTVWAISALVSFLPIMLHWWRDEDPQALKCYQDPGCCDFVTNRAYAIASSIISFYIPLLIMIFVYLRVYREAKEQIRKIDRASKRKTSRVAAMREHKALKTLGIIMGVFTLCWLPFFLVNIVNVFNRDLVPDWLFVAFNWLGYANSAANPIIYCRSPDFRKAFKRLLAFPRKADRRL

[2] = molecular target: avi-β1AR-E (turkey β1-adrenergic receptor, minimally thermostabilised construct with E130 restored, N-terminal biotinylated avi-tag) (turkey), P07700; assay: BLI; biotinylated avi-tagged receptor in LMNG immobilised on streptavidin biosensors; 500 μM isoprenaline; mini-G in solution at a single concentration (0.125-4 μM); 20 mM TrisHCl pH 8.0, 150 mM NaCl, 15 mM MgCl2, 0.02% LMNG, 0.1% BSA; 25 °C; 1:1 monophasic local partial fit; one of n = 3 tips
Chain of avi-β1AR-E (turkey β1-adrenergic receptor, minimally thermostabilised construct with E130 restored, N-terminal biotinylated avi-tag) (turkey), P07700 (P07700 other isoform, or with tags, fused parts or gaps): as above

[3] = molecular target: avi-β1AR-W (turkey β1-adrenergic receptor β1AR-MetΔ5, thermostabilised with E130W, N-terminal biotinylated avi-tag) (turkey), P07700; assay: as above
Chain of avi-β1AR-W (turkey β1-adrenergic receptor β1AR-MetΔ5, thermostabilised with E130W, N-terminal biotinylated avi-tag) (turkey), P07700 (P07700 other isoform, or with tags, fused parts or gaps E130W): as the sequence (P07700 other isoform, or with tags, fused parts or gaps) above, with E100W counted along it

Kd [1]: 47 nM
B1: mini-Gs 393 with C96A (domain or fragment)
chain: GIEKQLQKDKQVYRATHRLLLLGADNSGKSTIVKQMRIYHGGSGGSGGTSGIFETKFQVDKVNFHMFDVGGQRDERRKWIQAFNDVTAIIFVVDSSDYNRLQEALNDFKSIWNNRWLRTISVILFLNKQDLLAEKVLAGKSKIEDYFPEFARYTTPEDATPEPGEDPRVTRAKYFIRDEFLRISTASGDGRHYCYPHFTCAVDTENARRIFNDCRDIIQRMHLRQYELL
modifications: not checked

Kd [2]: 1430 nM and 1120 nM and 1460 nM
koff [2]: 0.0042 s⁻¹ and 0.00358 s⁻¹ and 0.00401 s⁻¹
kon [2]: 2950 M⁻¹ s⁻¹ and 3200 M⁻¹ s⁻¹ and 2740 M⁻¹ s⁻¹
Kd [3]: 8710 nM and 8110 nM and 5420 nM
koff [3]: 0.0102 s⁻¹ and 0.00894 s⁻¹ and 0.00914 s⁻¹
kon [3]: 1170 M⁻¹ s⁻¹ and 1100 M⁻¹ s⁻¹ and 1690 M⁻¹ s⁻¹
Kd [1]: 1340 nM
fold reduction of kon against mini-Gs [1]: 50 fold
B2: mini-Go1 R12 (domain or fragment)
chain: IEKNLKEDGISAAKDVKLLLLGADNSGKSTIVKQMKIIHTTGIVETHFTFKNLHFRLFDVGGQRSERKKWIHCFEDVTAIIFCVDLSDYNRMHESLMLFDSICNNKFFIDTSIILFLNKKDLFGEKIKKSPLTICFPEYTGPNTYEDAAAYIQAQFESKNRSPNKEIYCHMTCATDTNNAQVIFDAVTDIIIANNLRGCGLY
modifications: not checked
